Data as given in the supplement of paper PMC10724198.
± gives the standard deviation of the averaged measurements.

Each sequence was assayed on Saccharomyces cerevisiae (assay: protein stability index of tFT-peptide fusion (C-terminal peptide) (PSI (0-1 scale)); higher = more stable (slower turnover)). Settings: genetic background: wild type; temperature: 30 C.
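Also: PSI is a weighted mean of sequencing reads over stability bins, variants kept only with over 10 reads, mCherry proximal and sfGFP distal, peptide attached via GGGS linker.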

Row | Sequence | protein stability index
1 | PPLPPRPQTHLH | 0.728 ± 0.074
2 | PPLPPSPPAPPP | 0.629 ± 0.0019
3 | PPLPPSSPPPSS | 0.6605 ± 0.0028
4 | PPLPPTLSSIVI | 0.599 ± 0.021
5 | PPLPRPHHPYRR | 0.708 ± 0.025
6 | PPLRPPRPHQHS | 0.636 ± 0.039
7 | PPLSVLPFRFIL | 0.575 ± 0.048
8 | PPLTHASPLHLI | 0.585 ± 0.021
9 | PPLTRRSTLMSY | 0.591 ± 0.042
10 | PPLVPPTPAFPP | 0.623 ± 0.028
11 | PPNLLPPLSPSL | 0.678 ± 0.08
12 | PPPAAPPSSPLL | 0.765 ± 0.071
13 | PPPAPLPPRSSS | 0.638 ± 0.086
14 | PPPAPPLTFGHV | 0.6852 ± 0.0031
15 | PPPAPRPPASPP | 0.69815 ± 0.00052
16 | PPPAPRTPPLLP | 0.736 ± 0.029
17 | PPPDPPRHGRPE | 0.684 ± 0.035
18 | PPPDRLPPAHLP | 0.721 ± 0.029
19 | PPPFLPLCFPPL | 0.691 ± 0.032
20 | PPPFPPPPLFPL | 0.714 ± 0.032
21 | PPPGPPAVANRL | 0.701 ± 0.072
22 | PPPGPSPPPSPH | 0.683 ± 0.074
23 | PPPGPSRRPAAL | 0.726 ± 0.017
24 | PPPHPHPFSLAL | 0.691 ± 0.017
25 | PPPHPLALPPPP | 0.74 ± 0.03
26 | PPPHPPPPLPPP | 0.617 ± 0.01

Row | Sequence | protein stability index
27 | PPPHPPPPPLPS | 0.635 ± 0.021
28 | PPPHPPRPPVPR | 0.697 ± 0.016
29 | PPPHRPPPRPPR | 0.697 ± 0.0094
30 | PPPHSPLPAPPR | 0.76 ± 0.086
31 | PPPLASLSPASP | 0.624 ± 0.05
32 | PPPLATPTPTRP | 0.688 ± 0.17
33 | PPPLLPPHPPGL | 0.701 ± 0.0096
34 | PPPLLPPLDAPS | 0.721 ± 0.083
35 | PPPLLSPAFFLP | 0.727 ± 0.053
36 | PPPLPGSLLPLP | 0.72349 ± 0.00037
37 | PPPLPPLPTALS | 0.693 ± 0.0036
38 | PPPLPPRMPPPF | 0.72 ± 0.036
39 | PPPLPRSPPPPF | 0.74 ± 0.021
40 | PPPLPSSPSPLL | 0.679 ± 0.022
41 | PPPLSLTPPFLY | 0.673 ± 0.074
42 | PPPLSPPTPPPP | 0.674 ± 0.049
43 | PPPLSSPGPPPL | 0.704 ± 0.014
44 | PPPLTPSPPPPP | 0.663 ± 0.021
45 | PPPLTYPTSPPS | 0.661 ± 0.019
46 | PPPNLSSGVPFI | 0.7051 ± 0.0025
47 | PPPPALWPPPSP | 0.735 ± 0.013
48 | PPPPASPPHAPP | 0.653 ± 0.07
49 | PPPPFPLPSPSL | 0.655 ± 0.022
50 | PPPPGKTDRPSH | 0.695 ± 0.055
51 | PPPPGPGSAPPP | 0.59 ± 0.065
52 | PPPPGPPPLPLP | 0.764 ± 0.058

Row | Sequence | protein stability index
53 | PPPPGSKPPPSP | 0.722 ± 0.028
54 | PPPPHPPFPPRF | 0.722 ± 0.047
55 | PPPPHPPPSLRA | 0.67716 ± 6e-05
56 | PPPPHRSHLPHS | 0.697 ± 0.03
57 | PPPPLPPAPPLP | 0.6607 ± 8.2e-05
58 | PPPPLPPRPSPP | 0.71 ± 0.074
59 | PPPPLPSFPSSS | 0.858 ± 0.062
60 | PPPPLTPPHLSP | 0.713 ± 0.039
61 | PPPPPAPLPSSL | 0.671 ± 0.02
62 | PPPPPCSPPSPP | 0.681 ± 0.025
63 | PPPPPHPPPHTR | 0.678 ± 0.017
64 | PPPPPLHSSPWL | 0.737 ± 0.14
65 | PPPPPLLLPPPA | 0.651 ± 0.038
66 | PPPPPLLTRPLP | 0.699 ± 0.081
67 | PPPPPLPRSSLS | 0.6968 ± 0.0041
68 | PPPPPPAPPSPA | 0.726 ± 0.051
69 | PPPPPPHPLLST | 0.708 ± 0.073
70 | PPPPPPLFPSPP | 0.772 ± 0.13
71 | PPPPPPLHATPL | 0.6969 ± 0.0065
72 | PPPPPPLSPCPS | 0.704 ± 0.099
73 | PPPPPPLSRTST | 0.723 ± 0.082
74 | PPPPPPPALPSL | 0.6668 ± 0.0034
75 | PPPPPPPAPPPC | 0.7243 ± 0.0033
76 | PPPPPPPDPVPP | 0.645 ± 0.039
77 | PPPPPPPHPPHL | 0.728 ± 0.031
78 | PPPPPPPLVPPS | 0.595 ± 0.036

Row | Sequence | protein stability index
79 | PPPPPPPPCGTP | 0.633 ± 0.014
80 | PPPPPPPPPCSP | 0.7052 ± 0.0024
81 | PPPPPPPPPPPL | 0.677 ± 0.028
82 | PPPPPPPPPPTL | 0.712 ± 0.028
83 | PPPPPPPPRLTP | 0.754 ± 0.074
84 | PPPPPPPPRPLL | 0.787 ± 0.16
85 | PPPPPPPPSSSL | 0.6819 ± 0.0041
86 | PPPPPPPSPLAP | 0.707 ± 0.015
87 | PPPPPPSPPLSP | 0.677 ± 0.028
88 | PPPPPPSPPPSP | 0.633 ± 0.044
89 | PPPPPPYHPTPP | 0.6685 ± 0.0011
90 | PPPPPRAPPLPP | 0.679 ± 0.029
91 | PPPPPRAPSLLA | 0.704 ± 0.03
92 | PPPPPRPSPRPS | 0.796 ± 0.013
93 | PPPPPSRPPPAL | 0.7405 ± 0.0049
94 | PPPPPSSPPALL | 0.663 ± 0.058
95 | PPPPPTFPVLTS | 0.603 ± 0.046
96 | PPPPPTLPSCLS | 0.689 ± 0.063
97 | PPPPPTRLPQNS | 0.694 ± 0.062
98 | PPPPRPLPSSNG | 0.76 ± 0.049
99 | PPPPRPPATPFP | 0.676 ± 0.052
100 | PPPPRPPPPATL | 0.662 ± 0.02
101 | PPPPRPPPVPPF | 0.61 ± 0.048
